The assay has as its target T1, human origin recognition complex hORC1-5 (human, UniProt Q13415 1-861; Q13416 1-577; Q9UBD5 1-711; O43929 1-436; O43913 1-435).
T1 construct: human origin recognition complex subunit 1 (hORC1); human origin recognition complex subunit 2 (hORC2); human origin recognition complex subunit 3 (hORC3); human origin recognition complex subunit 4 (hORC4); human origin recognition complex subunit 5 (hORC5); The Strep tag on hORC1 was kept for the pull-down; also called Strep-hORC1-5; hORC1-5WT; source: S. cerevisiae YC658, galactose-induced, …
Description: cryo-EM structure; hOCCM from a low-salt washed pre-RC reaction with ATPγS, eluted from the DNA beads with DNaseI; 6.09 Å. Conditions: both partners purified.

B1: human MCM5 (natural protein, UniProt P33992 1-734, looked up)
chain: MSGFDDPGIFYSDSFGGDAQADEGQARKSQLQRRFKEFLRQYRVGTDRTGFTFKYRDELKRHYNLGEYWIEVEMEDLASFDEDLADYLYKQPAEHLQLLEEAAKEVADEVTRPRPSGEEVLQDIQVMLKSDASPSSIRSLKSDMMSHLVKIPGIIIAASAVRAKATRISIQCRSCRNTLTNIAMRPGLEGYALPRKCNTDQAGRPKCPLDPYFIMPDKCKCVDFQTLKLQELPDAVPHGEMPRHMQLYCDRYLCDKVVPGNRVTIMGIYSIKKFGLTTSRGRDRVGVGIRSSYIRVLGIQVDTDGSGRSFAGAVSPQEEEEFRRLAALPNVYEVISKSIAPSIFGGTDMKKAIACLLFGGSRKRLPDGLTRRGDINLLMLGDPGTAKSQLLKFVEKCSPIGVYTSGKGSSAAGLTASVMRDPSSRNFIMEGGAMVLADGGVVCIDEFDKMREDDRVAIHEAMEQQTISIAKAGITTTLNSRCSVLAAANSVFGRWDETKGEDNIDFMPTILSRFDMIFIVKDEHNEERDVMLAKHVITLHVSALTQTQAVEGEIDLAKLKKFIAYCRVKCGPRLSAEAAEKLKNRYIIMRSGARQHERDSDRRSSIPITVRQLEAIVRIAEALSKMKLQPFATEADVEEALRLFQVSTLDAALSGTLSGVEGFTSQEDQEMLSRIEKQLKRRFAIGSQVSEHSIIKDFTKQKYPEHAIHKVLQLMLRRGEIQHRMQRKVLYRLK
notes: Subunit of m6; also called hMCM5; source: HEK293-F, co-expressed hMCM2-7; in lysate (co-purification) and purified as hMCM2-7 (Ni-NTA, StrepTrapXT)
For B1, the binding result is on record as “binds”.

(Values after PMC11711466, “Reconstitution of human DNA licensing and the structural and functional analysis of key intermediates” (Nature Communications, 2024).)
